According to patent US20240293478A1 (ACTYM THERAPEUTICS, published 2024):

T1: Human DLL3 (R&D Systems) (human, UniProt Q9NYJ7 27-492, limits assumed)
T1 sequence (looked up): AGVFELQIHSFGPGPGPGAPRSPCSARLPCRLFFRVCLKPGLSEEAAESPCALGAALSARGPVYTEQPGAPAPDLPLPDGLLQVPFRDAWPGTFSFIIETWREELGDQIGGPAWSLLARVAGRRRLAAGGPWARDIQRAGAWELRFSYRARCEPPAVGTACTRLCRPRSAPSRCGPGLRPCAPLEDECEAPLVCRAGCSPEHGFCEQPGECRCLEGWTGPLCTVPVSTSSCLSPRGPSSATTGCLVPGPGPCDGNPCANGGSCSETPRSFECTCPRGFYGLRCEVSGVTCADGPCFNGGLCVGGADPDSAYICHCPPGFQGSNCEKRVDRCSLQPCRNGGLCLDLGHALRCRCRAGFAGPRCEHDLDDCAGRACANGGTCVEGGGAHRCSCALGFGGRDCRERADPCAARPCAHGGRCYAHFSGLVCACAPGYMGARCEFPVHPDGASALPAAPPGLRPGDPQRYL

T2: DLL3 on SHP77 cells (UniProt Q9NYJ7 27-618, limits assumed)
T2 construct: whole, on cells; also called delta-like ligand 3
T2 sequence (looked up): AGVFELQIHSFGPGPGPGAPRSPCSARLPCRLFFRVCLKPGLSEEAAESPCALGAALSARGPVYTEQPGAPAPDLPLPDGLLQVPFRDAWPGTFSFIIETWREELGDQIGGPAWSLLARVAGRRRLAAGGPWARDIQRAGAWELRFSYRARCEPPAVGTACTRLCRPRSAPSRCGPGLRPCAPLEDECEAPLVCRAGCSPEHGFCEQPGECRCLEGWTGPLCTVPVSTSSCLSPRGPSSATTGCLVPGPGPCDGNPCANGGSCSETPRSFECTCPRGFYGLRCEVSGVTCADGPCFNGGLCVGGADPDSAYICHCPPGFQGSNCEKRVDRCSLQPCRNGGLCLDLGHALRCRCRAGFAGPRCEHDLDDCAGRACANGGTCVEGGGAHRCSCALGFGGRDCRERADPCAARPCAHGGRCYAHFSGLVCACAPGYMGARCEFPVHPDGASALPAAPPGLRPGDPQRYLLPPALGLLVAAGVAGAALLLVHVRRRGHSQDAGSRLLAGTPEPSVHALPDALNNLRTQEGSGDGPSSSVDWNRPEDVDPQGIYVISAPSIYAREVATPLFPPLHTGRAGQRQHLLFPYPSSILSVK


Experiments:
[1] = biological target: T1, Human DLL3 (R&D Systems); assay: bridging ELISA (human DLL3 coated, CD3e-Fc detection) with engagers purified on ANTI-FLAG M2 Affinity Gel
Method: (§1) The expressed DLL3×CD3 bispecific T-cell engagers also were evaluated for binding to DLL3 and to CD3 with an ELISA. This ELISA was developed to detect correctly folded DLL3×CD3 bispecific T-cell engager binding to DLL3 and CD3 in the same assay. Human DLL3 (R&D Systems) was coated overnight at 4° C. on a high protein-binding 96-well plate, at a concentration of 1 ug/ml. The wells then were washed three times with PBS 0.05% Tween-20, and the wells were blocked with ELISA blocking buffer for 1 hour at room temperature. The wells then were washed three times with PBS 0.05% Tween-20. HEK293T cell culture supernatants, containing the DLL3×CD3 bispecific T-cell engagers, were added to the wells and incubated for 2 hours at room temperature. The wells were washed three times with PBS 0.05% Tween-20, and human IgG Fc conjugated CD3e was added to the wells (Acro Biosystems), and incubated for one hour at room temperature. The wells again were washed three times with PBS 0.05% Tween-20, and horseradish peroxidase (HRP)-conjugated anti-human antibody was added for a 1 hour incubation. The wells were then washed three times with PBS 0.05% Tween-20, and detection reagent (3,3′,5,5′-tetramethylbenzidine (TMB), Thermo Fisher Scientific) was added to the wells. The enzymatic reaction was stopped with sulfuric acid (BioLegend), and the optical densities were read at 450 nm.
The table below provides the results of this ELISA, shown as the absorbance at 450 nm. All of the SC16.56 DLL3LH×CD3HL, SC16.34 DLL3HL×CD3HL, and SC16.34 DLL3LH×CD3HL BiTE antibodies were detected, showing that these BiTEs antibodies are fully functional. […] In a separate experiment, the bispecific T-cell engagers were purified using ANTI-FLAG M2 Affinity Gel (Sigma) and run on this ELISA. SC16.34 DLL3LH×CD3HL was the only purified BiTE to show ELISA signal above background.

[2] = biological target: T1, Human DLL3 (R&D Systems); assay: bridging ELISA: human DLL3 coated at 1 ug/ml, HEK293T supernatant, detection by human IgG Fc conjugated CD3e + anti-human-HRP (signal needs binding to both DLL3 and CD3e); untransfected 0.010
Method: as §1

[3] = biological target: T2, DLL3 on SHP77 cells; assay: flow cytometry on SHP77 cells, concentrated HEK supernatant, Protein L biotin + Streptavidin APC; percent APC positive cells
Method: (§2) 500,000 SHP77 cells were seeded in wells of a V-bottom 96-well plate. The cells were washed once with PBS+2% FBS by centrifugation at 1300 RPM for 3 minutes. The cells were resuspended in 50 uL PBS+2% FBS containing concentrated HEK supernatant corresponding to either untransfected cells or cells transfected with a BiTE. After 30 minutes, the cells were washed twice with PBS+2% FBS by centrifugation at 1300 RPM for 3 minutes. The cells were then resuspended in 50 uL PBS+2% FBS containing either anti-Flag biotin (Sigma) at 1:100 dilution or Protein L biotin (Genscript) at 1:200 dilution, and incubated on ice for 30 minutes. The cells were washed twice with PBS+2% FBS by centrifugation at 1300 RPM for 3 minutes. Subsequently, the cells were stained with Streptavidin APC (Biolegend) at 1:200 dilution and incubated on ice for 30 minutes in the dark.
(§3) The cells were washed twice with PBS+2% FBS by centrifugation at 1300 RPM for 3 minutes and resuspended in DAPI diluted 1:6000 in PBS+2% FBS. Flow cytometry data were acquired using the ACEA NovoCyte® flow cytometer (ACEA Biosciences, Inc.), and analyzed using the FlowJo™ software (Tree Star, Inc.).

[4] = biological target: T2, DLL3 on SHP77 cells; assay: flow cytometry on SHP77 cells, concentrated HEK supernatant, anti-Flag biotin + Streptavidin APC; percent APC positive cells
Method: as §2, §3

| Binder | binding result [1] | Absorbance at 450 nm [2] | % Binding to SHP77 Detected by Protein L [3] | % Binding to SHP77 Detected by anti-Flag [4] |
| --- | --- | --- | --- | --- |
| SC16.56 DLL3HL×CD3HL (bispecific antibody, the leader is left out here; Tested as HEK293T supernatant; also called SC16.56 DLL3HLxCD3HL BiTE) QIQLVQSGPELKKPGETVKISCKASGYTFTNYGMNWVKQAPGKGLKWMAWINTYTGEPTYADDFKGRFAFSLETSASTASLQIINLKNEDTATYFCARIGDSSPSDYWGQGTTLTVSSGGGGSGGGGSGGGGSSIVMTQTPKFLLVSAGDRVTITCKASQSVSNDVVWYQQKPGQSPKLLIYYASNRYTGVPDRFAGSGYGTDFSFTISTVQAEDLAVYFCQQDYTSPWTFGGGTKLEIRGGGGSEVQLVESGGGLVQPGKSLKLSCEASGFTFSGYGMHWVRQAPGRGLESVAYITSSSINIKYADAVKGRFTVSRDNAKNLLFLQMNILKSEDTAMYYCARFDWDKNYWGQGTMVTVSSGGGGSGGGGSGGGGSDIQMTQSPSSLPASLGDRVTINCQASQDISNYLNWYQQKPGKAPKLLIYYTNKLADGVPSRFSGSGSGRDSSFTISSLESEDIGSYYCQQYYNYPWTFGPGTKLEIKDYKDDDDK | no binding | 0.007 absorbance (450 nm) |  |  |
| SC16.34 DLL3HL×CD3HL (bispecific antibody, the leader is left out here; Tested as HEK293T supernatant; also called SC16.34 DLL3HLxCD3HL BiTE) QIQLVQSGPELKRPGETVKISCKASGYTFTNYGMNWVKQAPGKGLKWMGWINTYTGDPTYADDFKGRFAFSLETSASTAYLQINNLKNEDTATYFCARIGGNSPSDYWGQGTSLTVSSGGGGSGGGGSGGGGSSIVMTQTPKFLLVSAGDRVTITCKASQSVSNDVAWYQQKPGQSPKLLIYYASNRYSGVPDRFTGSGYGTDFTFTISTVQAEDLAVYFCQQDYSSPWTFGGGTKLEIKGGGGSEVQLVESGGGLVQPGKSLKLSCEASGFTFSGYGMHWVRQAPGRGLESVAYITSSSINIKYADAVKGRFTVSRDNAKNLLFLQMNILKSEDTAMYYCARFDWDKNYWGQGTMVTVSSGGGGSGGGGSGGGGSDIQMTQSPSSLPASLGDRVTINCQASQDISNYLNWYQQKPGKAPKLLIYYTNKLADGVPSRFSGSGSGRDSSFTISSLESEDIGSYYCQQYYNYPWTFGPGTKLEIKDYKDDDDK |  | 0.253 absorbance (450 nm) | 36.6% | 19.6% |
| SC16.56 DLL3LH×CD3HL (bispecific antibody, the leader is left out here; Tested as HEK293T supernatant; also called SC16.56 DLL3LHxCD3HL BiTE) SIVMTQTPKFLLVSAGDRVTITCKASQSVSNDVVWYQQKPGQSPKLLIYYASNRYTGVPDRFAGSGYGTDFSFTISTVQAEDLAVYFCQQDYTSPWTFGGGTKLEIRGGGGSGGGGSGGGGSQIQLVQSGPELKKPGETVKISCKASGYTFTNYGMNWVKQAPGKGLKWMAWINTYTGEPTYADDFKGRFAFSLETSASTASLQIINLKNEDTATYFCARIGDSSPSDYWGQGTTLTVSSGGGGSEVQLVESGGGLVQPGKSLKLSCEASGFTFSGYGMHWVRQAPGRGLESVAYITSSSINIKYADAVKGRFTVSRDNAKNLLFLQMNILKSEDTAMYYCARFDWDKNYWGQGTMVTVSSGGGGSGGGGSGGGGSDIQMTQSPSSLPASLGDRVTINCQASQDISNYLNWYQQKPGKAPKLLIYYTNKLADGVPSRFSGSGSGRDSSFTISSLESEDIGSYYCQQYYNYPWTFGPGTKLEIKDYKDDDDK |  | 0.175 absorbance (450 nm) | 36.4% | 20.9% |
| SC16.15 DLL3LH×CD3HL (bispecific antibody, the leader is left out here; Tested as HEK293T supernatant; also called SC16.15 DLL3LHxCD3HL BiTE) DIQMTQSPASLAASVGETVAITCRASENIYYNLAWYQQKQGKSPQLLIYTANSLEDGVPSRFSGSGSGTQYSLKINSMQPEDSATYFCKQAYDVPPTFGGGTKLEIKGGGGSGGGGSGGGGSQVQLQQSGAELAKPGASVKMSCKASGYTFTRYWIHWIKQRPGQGLEWIGYINPTTVYTEFNQNFKDKATLTADKSSTTASMQLSSLTSEDSAVYYCARGGSNFFDYWGQGTTLTVSSGGGGSEVQLVESGGGLVQPGKSLKLSCEASGFTFSGYGMHWVRQAPGRGLESVAYITSSSINIKYADAVKGRFTVSRDNAKNLLFLQMNILKSEDTAMYYCARFDWDKNYWGQGTMVTVSSGGGGSGGGGSGGGGSDIQMTQSPSSLPASLGDRVTINCQASQDISNYLNWYQQKPGKAPKLLIYYTNKLADGVPSRFSGSGSGRDSSFTISSLESEDIGSYYCQQYYNYPWTFGPGTKLEIKDYKDDDDK | no binding | 0.001 absorbance (450 nm) |  |  |
| SC16.15 DLL3HL×CD3HL (bispecific antibody, the leader is left out here; Tested as HEK293T supernatant; also called SC16.15 DLL3HLxCD3HL BiTE) QVQLQQSGAELAKPGASVKMSCKASGYTFTRYWIHWIKQRPGQGLEWIGYINPTTVYTEFNQNFKDKATLTADKSSTTASMQLSSLTSEDSAVYYCARGGSNFFDYWGQGTTLTVSSGGGGSGGGGSGGGGSDIQMTQSPASLAASVGETVAITCRASENIYYNLAWYQQKQGKSPQLLIYTANSLEDGVPSRFSGSGSGTQYSLKINSMQPEDSATYFCKQAYDVPPTFGGGTKLEIKGGGGSEVQLVESGGGLVQPGKSLKLSCEASGFTFSGYGMHWVRQAPGRGLESVAYITSSSINIKYADAVKGRFTVSRDNAKNLLFLQMNILKSEDTAMYYCARFDWDKNYWGQGTMVTVSSGGGGSGGGGSGGGGSDIQMTQSPSSLPASLGDRVTINCQASQDISNYLNWYQQKPGKAPKLLIYYTNKLADGVPSRFSGSGSGRDSSFTISSLESEDIGSYYCQQYYNYPWTFGPGTKLEIKDYKDDDDK | no binding | 0.002 absorbance (450 nm) |  |  |
| SC16.34 DLL3LH×CD3HL (bispecific antibody, the leader is left out here; also called SC16.34 DLL3LHxCD3HL BiTE) SIVMTQTPKFLLVSAGDRVTITCKASQSVSNDVAWYQQKPGQSPKLLIYYASNRYSGVPDRFTGSGYGTDFTFTISTVQAEDLAVYFCQQDYSSPWTFGGGTKLEIKGGGGSGGGGSGGGGSQIQLVQSGPELKRPGETVKISCKASGYTFTNYGMNWVKQAPGKGLKWMGWINTYTGDPTYADDFKGRFAFSLETSASTAYLQINNLKNEDTATYFCARIGGNSPSDYWGQGTSLTVSSGGGGSEVQLVESGGGLVQPGKSLKLSCEASGFTFSGYGMHWVRQAPGRGLESVAYITSSSINIKYADAVKGRFTVSRDNAKNLLFLQMNILKSEDTAMYYCARFDWDKNYWGQGTMVTVSSGGGGSGGGGSGGGGSDIQMTQSPSSLPASLGDRVTINCQASQDISNYLNWYQQKPGKAPKLLIYYTNKLADGVPSRFSGSGSGRDSSFTISSLESEDIGSYYCQQYYNYPWTFGPGTKLEIKDYKDDDDK |  | 1.46 absorbance (450 nm) | 36.4% | 20.1% |
